According to the supplement of paper PMC11246515:
± gives the standard deviation of the averaged measurements.

Experiment: total protein half-life in vivo (active degradation + dilution); higher = more stable protein
[1] = E. coli NCM3722 delta-clpP delta-lon delta-hslV, growth: N-lim chemostat, doubling time 6 h
[2] = E. coli NCM3722 delta-clpP, growth: N-lim chemostat, doubling time 6 h
[3] = E. coli NCM3722 delta-hslV, growth: N-lim chemostat, doubling time 6 h
[4] = E. coli NCM3722 delta-lon, growth: N-lim chemostat, doubling time 6 h
[5] = E. coli NCM3722 delta-smpB, growth: N-lim chemostat, doubling time 6 h
[6] = wild type E. coli NCM3722, growth: C-lim chemostat, doubling time 3 h
[7] = wild type E. coli NCM3722, growth: C-lim chemostat, doubling time 6 h
[8] = wild type E. coli NCM3722, growth: C-lim chemostat, doubling time 12 h
[9] = wild type E. coli NCM3722, growth: N-lim chemostat, doubling time 6 h
[10] = wild type E. coli NCM3722, growth: N-lim chemostat, doubling time 12 h
[11] = wild type E. coli NCM3722, growth: P-lim chemostat, doubling time 6 h
[12] = wild type E. coli NCM3722, growth: P-lim chemostat, doubling time 12 h

Sequence | total protein half-life in vivo [1] [h] | total protein half-life in vivo [2] [h] | total protein half-life in vivo [3] [h] | total protein half-life in vivo [4] [h] | total protein half-life in vivo [5] [h] | total protein half-life in vivo [6] [h] | total protein half-life in vivo [7] [h] | total protein half-life in vivo [8] [h] | total protein half-life in vivo [9] [h] | total protein half-life in vivo [10] [h] | total protein half-life in vivo [11] [h] | total protein half-life in vivo [12] [h]
MISLFDMFKVGIGPSSSHTVGPMKAGKQFVDDLVEKGLLDSVTRVAVDVYGSLSLTGKGHHTDIAIIMGLAGNEPATVDIDSIPGFIRDVEERERLLLAQGRHEVDFPRDNGMRFHNGNLPLHENGMQIHAYNGDEVVYSKTYYSIGGGFIVDEEHFGQDAANEVSVPYPFKSATELLAYCNETGYSLSGLAMQNELALHSKKEIDEYFAHVWQTMQACIDRGMNTEGVLPGPLRVPRRASALRRMLVSSDKLSNDPMNVIDWVNMFALAVNEENAAGGRVVTAPTNGACGIVPAVLAYYDHFIESVSPDIYTRYFMAAGAIGALYKMNASISGAEVGCQGEVGVACSMAAAGLAELLGGSPEQVCVAAEIGMEHNLGLTCDPVAGQVQVPCIERNAIASVKAINAARMALRRTSAPRVSLDKVIETMYETGKDMNAKYRETSRGGLAIKVQCD | 3.76 ± 0.4 | 3.54 ± 0.37 | 1.9 ± 0.28 | 2.48 ± 0.38 | 1.78 ± 0.14 | 1.52 ± 0.084 | 2.267 ± 0.0096 | 3.25 ± 0.43 | 2.08 ± 0.26 | 2.57 ± 0.32 | 3.4 ± 0.63 | 7.67 ± 0.65
MTIKNVICDIDGVLMHDNVAVPGAAEFLHGIMDKGLPLVLLTNYPSQTGQDLANRFATAGVDVPDSVFYTSAMATADFLRRQEGKKAYVVGEGALIHELYKAGFTITDVNPDFVIVGETRSYNWDMMHKAAYFVANGARFIATNPDTHGRGFYPACGALCAGIEKISGRKPFYVGKPSPWIIRAALNKMQAHSEETVIVGDNLRTDILAGFQAGLETILVLSGVSSLDDIDSMPFRPSWIYPSVAEIDVI [P0AF24] | 6.46 ± 0.48 | 5.48 ± 0.16 | 5.64 ± 0.15 | 5.88 ± 0.64 | 5.58 ± 0.17 | 3.14 ± 0.041 | 5.71 ± 0.07 | 11.6 ± 1.2 | 5.465 ± 0.045 | 9.89 ± 0.17 | 6 ± 0.44 | 10.4 ± 2.1
MKKIAFGCDHVGFILKHEIVAHLVERGVEVIDKGTWSSERTDYPHYASQVALAVAGGEVDGGILICGTGVGISIAANKFAGIRAVVCSEPYSAQLSRQHNDTNVLAFGSRVVGLELAKMIVDAWLGAQYEGGRHQQRVEAITAIEQRRN | 4.69 ± 0.15 | – | 3.77 ± 0.19 | 3.82 ± 0.13 | 3.45 ± 0.1 | 3.05 ± 0.37 | 5.6 ± 0.41 | 9.29 ± 1.4 | 3.725 ± 0.033 | 5.17 ± 1 | 5.32 ± 0.18 | 10.2 ± 0.91
MSKIIATLYAVMDKRPLRALSFVMALLLAGCMFWDPSRFAAKTSELEIWHGLLLMWAVCAGVIHGVGFRPQKVLWQGIFCPLLADIVLIVGLIFFFF [P0AAV0] | – | – | – | 5.39 | – | – | – | – | – | – | – | –
MIPFNAPPVVGTELDYMQSAMGSGKLCGDGGFTRRCQQWLEQRFGSAKVLLTPSCTASLEMAALLLDIQPGDEVIMPSYTFVSTANAFVLRGAKIVFVDVRPDTMNIDETLIEAAITDKTRVIVPVHYAGVACEMDTIMALAKKHNLFVVEDAAQGVMSTYKGRALGTIGHIGCFSFHETKNYTAGGEGGATLINDKALIERAEIIREKGTNRSQFFRGQVDKYTWRDIGSSYLMSDLQAAYLWAQLEAADRINQQRLALWQNYYDALAPLAKAGRIELPSIPDGCVQNAHMFYIKLRDIDDRSALINFLKEAEIMAVFHYIPLHGCPAGEHFGEFHGEDRYTTKESERLLRLPLFYNLSPVNQRTVIATLLNYFS | 4.72 ± 0.099 | 4.4 ± 0.0057 | 4.83 ± 0.25 | 4.45 | 4.25 ± 0.17 | 2.89 ± 0.68 | 6.6 ± 1 | 12.5 ± 1.2 | 5.2 | 8.13 ± 0.2 | 6.1125 ± 0.0047 | 12.33 ± 0.05
MSWQEKINAALDARRAADALRRRYPVAQGAGRWLVADDRQYLNFSSNDYLGLSHHPQIIRAWQQGAEQFGIGSGGSGHVSGYSVVHQALEEELAEWLGYSRALLFISGFAANQAVIAAMMAKEDRIAADRLSHASLLEAASLSPSQLRRFAHNDVTHLARLLASPCPGQQMVVTEGVFSMDGDSAPLAEIQQVTQQHNGWLMVDDAHGTGVIGEQGRGSCWLQKVKPELLVVTFGKGFGVSGAAVLCSSTVADYLLQFARHLIYSTSMPPAQAQALRASLAVIRSDEGDARREKLAALITRFRAGVQDLPFTLADSCSAIQPLIVGDNSRALQLAEKLRQQGCWVTAIRPPTVPAGTARLRLTLTAAHEMQDIDRLLEVLHGNG | 4.06 ± 0.98 | 3.57 ± 0.11 | 3.29 ± 0.14 | 3.88 ± 0.17 | 3.54 ± 0.15 | 3.07 ± 0.22 | 5.16 ± 0.21 | 8.97 ± 0.33 | 3.58 ± 0.21 | 5.24 ± 0.38 | 5.643 ± 0.044 | 10.9 ± 0.2
MKPLHYTASALALGLALMGNAQAVTTIPFWHSMEGELGKEVDSLAQRFNAENPDYKIVPTYKGNYEQNLSAGIAAFRTGNAPAILQVYEVGTATMMASKAIKPVYDVFKEAGIQFDESQFVPTVSGYYSDSKTGHLLSQPFNSSTPVLYYNKDAFKKAGLDPEQPPKTWQDLADYAAKLKASGMKCGYASGWQGWIQLENFSAWNGLPFASKNNGFDGTDAVLEFNKPEQVKHIAMLEEMNKKGDFSYVGRKDESTEKFYNGDCAMTTASSGSLANIREYAKFNYGVGMMPYDADAKDAPQNAIIGGASLWVMQGKDKETYTGVAKFLDFLAKPENAAEWHQKTGYLPITKAAYDLTREQGFYEKNPGADTATRQMLNKPPLPFTKGLRLGNMPQIRVIVDEELESVWTGKKTPQQALDTAVERGNQLLRRFEKSTKS [P0AG80] | 4.8 ± 0.06 | 5.43 ± 0.54 | 7.41 ± 0.31 | – | 6.14 ± 0.2 | 3.37 ± 0.17 | 6.26 ± 0.076 | 12.9 ± 0.73 | 6.47 ± 0.47 | 12.7 ± 0.98 | 6.14 ± 0.21 | 12.99 ± 0.1
